{
  "source": "patent US7323171",
  "target": "CD2 on human T cells (human) (UniProt P06729)",
  "sequence (P06729 25-351 limits assumed)": "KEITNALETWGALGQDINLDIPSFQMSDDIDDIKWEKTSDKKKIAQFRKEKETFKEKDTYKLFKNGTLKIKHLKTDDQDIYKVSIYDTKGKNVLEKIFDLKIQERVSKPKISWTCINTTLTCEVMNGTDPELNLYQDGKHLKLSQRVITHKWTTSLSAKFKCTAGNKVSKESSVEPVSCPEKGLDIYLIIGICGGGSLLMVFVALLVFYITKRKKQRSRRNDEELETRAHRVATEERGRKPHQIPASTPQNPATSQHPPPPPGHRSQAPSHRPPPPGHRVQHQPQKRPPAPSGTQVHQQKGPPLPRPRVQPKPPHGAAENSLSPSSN",
  "test": "cell-based or functional assay",
  "data": [
    {"substance": "anti-CD2 monoclonal antibody TS2/18", "values": [
      {"measurement": "inhibition of allogeneic T cell activation by normal skin cells ([3H]TdR incorporation), antibody at 50 µg/ml", "result": 40, "unit": "%"},
      {"measurement": "inhibition of autologous T cell proliferation ([3H]TdR incorporation) in response to lesional psoriatic epidermis, antibody at 50 µg/ml", "result": 60, "unit": "%"}
    ]}
  ]
}
